Values joined by “and” are separate entries in the source; they are usually repeats but may differ in a detail not shown here. Equal values may be shown once. Read-outs that look alike come from different tables or passages of the source.
Legend:
[1] = target: M2-mCherry2 (mCherry2 fused to the extracellular terminus of matrix protein 2 from influenza A/chicken/FPV/Rostock/1934) (influenza A/chicken/FPV/Rostock/1934)
[2] = target: M2-mCherry2 (mCherry2 fused to the extracellular terminus of matrix protein 2 from influenza A/chicken/FPV/Rostock/1934) (influenza A/chicken/FPV/Rostock/1934); remark: listed apart in the source
[3] = target: PB2-mCherry2 (IAV polymerase basic protein 2, influenza A/human/WSN/1933) (influenza A/human/WSN/1933)
[4] = target: PA-mEYFP (IAV polymerase acidic protein, influenza A/human/WSN/1933) (influenza A/human/WSN/1933) (UniProt P15659)
[5] = target: PA-mEYFP (IAV polymerase acidic protein, influenza A/human/WSN/1933) (influenza A/human/WSN/1933) (UniProt P15659); remark: listed apart in the source
[6] = target: PB1-mEGFP (IAV polymerase basic protein 1, influenza A/human/WSN/1933) (influenza A/human/WSN/1933)
[7] = target: PB2-mCherry2 (IAV polymerase basic protein 2, influenza A/human/WSN/1933) (influenza A/human/WSN/1933); remark: listed apart in the source

**Q.** How did the relative cross-correlation (rel.cc.) [1] turn out when “LC3-mEYFP (from UniProt Q62625 1-120) (natural protein)” was run?
**A.** Its relative cross-correlation (rel.cc.) is 0.52.

**Q.** And the stoichiometry N [2]?
**A.** Its stoichiometry N is 0.5 LC3:M2 and 0.25 LC3:M2.

**Q.** How did the normalized molecular brightness [1] turn out when “M2-mCherry2 (mCherry2 fused to the extracellular terminus of matrix protein 2 from influenza A/chicken/FPV/Rostock/1934) (natural protein)” was run?
**A.** Its normalized molecular brightness is 2.24.

**Q.** What about the stoichiometry N [1] of the same substance?
**A.** Its stoichiometry N is 3.1.

**Q.** Which relative cross-correlation (rel.cc.) [3] does the source give for “PA-mEYFP (IAV polymerase acidic protein, influenza A/human/WSN/1933) (from UniProt P15659 1-716) (natural protein)” here?
**A.** Its relative cross-correlation (rel.cc.) is 0.39.

**Q.** What about the stoichiometry N [4] of the same substance?
**A.** The stoichiometry N was 1.8.

**Q.** For “PB1-mEGFP (IAV polymerase basic protein 1, influenza A/human/WSN/1933) (natural protein)”, which relative cross-correlation (rel.cc.) [3] is on record?
**A.** The relative cross-correlation (rel.cc.) was 0.47.

**Q.** And the relative cross-correlation (rel.cc.) [5]?
**A.** The relative cross-correlation (rel.cc.) was 0.93.

**Q.** And the stoichiometry N [6]?
**A.** Its stoichiometry N is 2.1.

**Q.** How did the stoichiometry N [7] turn out when “PB2-mCherry2 (IAV polymerase basic protein 2, influenza A/human/WSN/1933) (natural protein)” was run?
**A.** The stoichiometry N was 2.2.
